167 variants from the RNAGym collection of RNA variant scans (doi:10.7554/elife.80360) can be followed below.

Sequences and labels used below:
B1: HDV Ribozyme (parent)
chain: GGCCGGCAUGGUCCCAGCCUCCUCGCUGGCGCCGGCUGGGCAACAUUCCGAGGGGACCGUCCCCUCGGUAAUGGCGAAUGGGACCCA

In the data set the parent is B1. Nature of the data set: self-cleavage, relative activity (ratio to wild type); higher = more cleavage; co-transcriptional.
Turning to G59C G82C, the self-cleavage was determined as 0.522.
The figure for C57U C86U is 0.991.
Take C57U C86G: the self-cleavage came to 0.862.
As to G59A A87G, the self-cleavage is 1.04.
Take G59A A87C: the self-cleavage was 0.974.
For the variant G59A C86U, the self-cleavage was 0.793.
In the case of G59A C86G, the self-cleavage came to 1.01.
For the variant C58G C61A, the self-cleavage was 1.14.
C58U G59U: the self-cleavage is 1.05.
The figure for C58U C85G is 1.07; for C58U C85U it is 0.945.
Turning to G59A C85A, the self-cleavage came to 1.1.
The figure for G59A C85G is 1.13; for U60A U69A it is 0.793.
Regarding G59C C63G, the self-cleavage is 0.909.
In the case of C58U C86G, the self-cleavage was 0.895.
C58U C86U: the self-cleavage is 0.969.
Turning to C58U C86A, the self-cleavage was 1.01.
G59A C62A: the self-cleavage came to 0.678.
Take G59A C62G: the self-cleavage is 0.502.
G59U C66G: the self-cleavage was 0.981.
For G59C C75G, the self-cleavage amounted to 0.189.
Regarding G59C C75U, the self-cleavage came to 0.233.
As to C58G G80U, the self-cleavage is 0.0903.
As for G59C G80U, the self-cleavage was determined as 0.244.
As to C58U G74A, the self-cleavage was found to be 0.462.
Turning to G59U C86A, the self-cleavage is 0.855.
As for G59U C86G, the figure is 0.975; as for C58A G67A, 0.745.
In the case of C58U U79A, the self-cleavage was determined as 1.07.
The figure for C57U U60G is 0.702; for C57U U60C it is 0.906.
C58A U60G: the self-cleavage amounted to 0.831.
Take C58A U60C: the self-cleavage was 1.17.
As for U60A A87G, the figure is 0.823.
Turning to C57G U79G, the self-cleavage was 0.506.
As for C58G U65G, the self-cleavage was found to be 1.16.
As for C58G U65C, the self-cleavage came out at 0.782.
Regarding C57U U72G, the self-cleavage is 0.587.
Regarding G59U A71G, the self-cleavage was 1.13.
As for G59C C85G, the self-cleavage worked out at 0.955.
Consider G59C C85A, for which the self-cleavage turned out to be 0.937.
As for G59A C61U, the self-cleavage amounted to 1.11.
Turning to G59A C61G, the self-cleavage worked out at 1.07.
C58U A77U: the self-cleavage was determined as 0.68.
C58U A77G: the self-cleavage amounted to 0.929.
For the variant G59C A77C, the self-cleavage was 0.101.
Regarding G59A C84A, the self-cleavage was 0.929.
With C58G G68C, the self-cleavage came to 0.748.
For the variant C58G G68A, the self-cleavage is 1.03.
Consider C58U G68C, for which the self-cleavage turned out to be 0.95.
For the variant C58U G68U, the self-cleavage was determined as 1.07.
Take U60A C85A: the self-cleavage was 0.831.
The figure for C57U U79G is 0.73; for C57U U79A it is 0.752; for C58U C66U it is 0.911.
Turning to C58U C66A, the self-cleavage stood at 1.22.
C58U C63G: the self-cleavage is 0.831.
The figure for C58U C63A is 0.986; for G59U G81A it is 0.361.
The figure for G59U G81C is 0.223; for U60A G82C it is 0.148; for U60A G82U it is 0.35.
C58G C86U: the self-cleavage amounted to 1.25.
On to G59U C85U, for which the self-cleavage stood at 0.935.
For G59U C85A, the self-cleavage is 0.749.
As for G59U C85G, the figure is 0.695; as for C58A C75A, 0.201.
With C58A C75U, the self-cleavage came to 0.158.
Take G59A G68C: the self-cleavage turned out to be 0.969.
Take G59A G68U: the self-cleavage is 0.92.
G59A G80C: the self-cleavage came out at 0.226.
For the variant G59U U69G, the self-cleavage is 1.14.
The figure for G59U U69A is 0.85; for C58G C62U it is 0.73; for C58G C62G it is 0.639.
In the case of C58U C61A, the self-cleavage came to 1.21.
As to C58U C61U, the self-cleavage came to 0.954.
Take C58G A71G: the self-cleavage was 1.07.
The figure for C58G A71U is 0.779; for C58U G76C it is 0.935; for C58U G76U it is 1.02.
Regarding C58U G76A, the self-cleavage amounted to 1.08.
In the case of G59U G82A, the self-cleavage amounted to 0.338.
On to G59U G82C, for which the self-cleavage was found to be 0.228.
Consider C58A U72A, for which the self-cleavage was 0.883.
As for C58A U72G, the self-cleavage was 1.09.
The figure for C58A U72C is 0.802; for C58U C84A it is 1.02; for C58U C84U it is 0.731.
Consider U60A C84A, for which the self-cleavage was 0.911.
In the case of U60A C84U, the self-cleavage amounted to 0.793.
For U60A A70U, the self-cleavage worked out at 1.06.
The figure for G59A A77G is 0.867.
In the case of C58G U79A, the self-cleavage was found to be 0.571.
Turning to G59C G76A, the self-cleavage is 0.767.
The figure for G59C G76C is 1.19.
C57U C66U: the self-cleavage turned out to be 0.87.
On to C58G G74C, for which the self-cleavage worked out at 0.101.
Take C58U U60G: the self-cleavage was determined as 1.2.
Regarding U60A A78C, the self-cleavage was 0.
Turning to U60A A78G, the self-cleavage turned out to be 0.808.
As for U60A A78U, the self-cleavage stood at 0.249.
The figure for C58A C66A is 0.959; for C57U G82U it is 0.234.
The figure for C57U G80A is 0.148.
Turning to C57G U72C, the self-cleavage stood at 0.587.
For the variant C57G U72A, the self-cleavage worked out at 0.635.
As for G59C A87C, the self-cleavage was 1.08.
For G59C A87G, the self-cleavage stood at 0.99.
Consider C58U C62A, for which the self-cleavage is 0.969.
As for C58U C62U, the figure is 0.867; as for C58A A70U, 1.
For the variant C58U A78C, the self-cleavage was 0.305.
With C58U A78U, the self-cleavage was 0.277.
Take G59U U65A: the self-cleavage is 0.912.
As for G59U U65G, the figure is 0.914.
For C57U C61G, the self-cleavage was 0.967.
As for C58G A78G, the figure is 0.723; as for C58G A78U, 0.277; as for G59U C64U, 1.05.
In the case of G59U C64G, the self-cleavage turned out to be 1.13.
Consider U60A A77C, for which the self-cleavage was determined as 0.305.
Regarding C58U A83U, the self-cleavage worked out at 0.453.
As for C58U A83C, the self-cleavage was determined as 0.403.
As to C58U A83G, the self-cleavage came out at 0.681.
For C57U U69G, the self-cleavage came to 1.27.
As to C57U A87U, the self-cleavage came out at 1.01.
On to C58A U69A, for which the self-cleavage is 1.07.
For the variant C58A U69G, the self-cleavage is 1.04.
Take G59U G73U: the self-cleavage came out at 0.516.
Turning to G59U G73C, the self-cleavage is 0.614.
Consider G59U G67C, for which the self-cleavage was 0.963.
For G59U C75U, the self-cleavage is 0.145.
C57U G74A: the self-cleavage came to 0.501.
As for C57U G74C, the self-cleavage was found to be 0.208.
With C57U C64U, the self-cleavage came out at 0.845.
On to C58A G81C, for which the self-cleavage was found to be 0.128.
Regarding C58A G81U, the self-cleavage worked out at 0.397.
C58U G67A: the self-cleavage amounted to 0.909.
Take C58G C64G: the self-cleavage worked out at 0.853.
In the case of G59C C86G, the self-cleavage was 1.06.
The figure for G59C C86U is 1.01.
Consider G59C C86A, for which the self-cleavage is 0.914.
As to C58U C64A, the self-cleavage is 0.867.
As to C58U A70G, the self-cleavage was determined as 1.01.
On to C58U A70U, for which the self-cleavage is 1.29.
As to C58U A70C, the self-cleavage was 0.831.
With G59U A83C, the self-cleavage was 0.34.
As to G59A C66G, the self-cleavage was 1.11.
Consider G59A C66U, for which the self-cleavage came to 0.849.
The figure for G59A G76C is 0.854; for G59A G76U it is 1.21; for C58G C84U it is 0.721.
Take G59C C84U: the self-cleavage is 0.774.
The figure for G59C C84A is 0.912; for C57U G67A it is 0.906; for G59A A83G it is 0.748.
On to G59A A83U, for which the self-cleavage was found to be 0.59.
Consider G59A A83C, for which the self-cleavage was 0.554.
C58G C75A: the self-cleavage worked out at 0.196.
Consider C58G C75U, for which the self-cleavage amounted to 0.122.
As for C58G C66U, the figure is 1.01; as for C58A G68U, 1.04; as for G59U G74C, 0.271.
As to G59U G74A, the self-cleavage is 0.46.
As to G59U G74U, the self-cleavage was determined as 0.502.
